From the supplement of paper PMC9112550, “Optimization of the antimicrobial peptide Bac7 by deep mutational scanning” (BMC Biology, 2022) come the findings set out here.

The data set deals with Escherichia coli TOP10. Nature of the data set: shrunken log2 fold change of peptide-encoding DNA abundance (4.5 h post-induction vs induction); higher = less antimicrobial activity (less host growth inhibition). As to conditions: time post-induction: 4.5 h; library: site-saturation at positions 5, 18, 19, 20.
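Further: peptides expressed intracellularly from a pBAD plasmid library in pooled LB shake-flask culture, induced with 0.3% L-arabinose, DNA abundance read by NGS, three biological replicates, DESeq2 with apeglm shrinkage.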

For the sequence RRIRLRPPRLPRPRPRPGCRPRP, the “shrunken log2 fold change” value was found to be 0.157. The value for RRIRRRPPRLPRPRPRPSLAPRP was 0.89. In the case of RRIRLRPPRLPRPRPRPNEVPRP it was -0.0062; in that of RRIRARPPRLPRPRPRPNWKPRP, -0.0233; in that of RRIRSRPPRLPRPRPRPWMCPRP, -0.391. The value for RRIRHRPPRLPRPRPRPYNTPRP was -1.01.

Regarding RRIRPRPPRLPRPRPRPDIVPRP, the “shrunken log2 fold change” value is -0.0822.

For RRIRMRPPRLPRPRPRPSLEPRP, the “shrunken log2 fold change” value was 0.895. On to RRIRERPPRLPRPRPRPNNPPRP, for which the “shrunken log2 fold change” value is -0.736. In the case of RRIRNRPPRLPRPRPRPMFPPRP it was -0.235; in that of RRIRPRPPRLPRPRPRPHFTPRP, -0.302. The value for RRIRYRPPRLPRPRPRPLEVPRP was -0.335; that for RRIRARPPRLPRPRPRPNSNPRP was -0.0294; that for RRIRGRPPRLPRPRPRPQWRPRP was 0.612.

With RRIRTRPPRLPRPRPRPQTEPRP, the “shrunken log2 fold change” value is -0.0173. The value for RRIRIRPPRLPRPRPRPLLQPRP was -0.163; that for RRIRCRPPRLPRPRPRPAAWPRP was 0.252. The value for RRIRNRPPRLPRPRPRPVLLPRP was -0.0738.

As for RRIRMRPPRLPRPRPRPQSPPRP, the “shrunken log2 fold change” value was 0.213. For the sequence RRIRGRPPRLPRPRPRPRKFPRP, the “shrunken log2 fold change” value was 0.399. On to RRIRCRPPRLPRPRPRPATSPRP, for which the “shrunken log2 fold change” value stood at 0.0157. As to RRIRPRPPRLPRPRPRPSFNPRP, the “shrunken log2 fold change” value was -0.629.

In the case of RRIRSRPPRLPRPRPRPQQMPRP, the “shrunken log2 fold change” value was -0.155.

Regarding RRIRDRPPRLPRPRPRPPANPRP, the “shrunken log2 fold change” value came to 0.0989. With RRIRRRPPRLPRPRPRPSVAPRP, the “shrunken log2 fold change” value turned out to be 0.478.

As for RRIRQRPPRLPRPRPRPHEEPRP, the “shrunken log2 fold change” value was -0.0442. In the case of RRIRGRPPRLPRPRPRPWKRPRP it was -0.0496; in that of RRIRQRPPRLPRPRPRPQSTPRP, -0.631; in that of RRIRWRPPRLPRPRPRPNVAPRP, 0.088. As for RRIRRRPPRLPRPRPRPSMRPRP, the “shrunken log2 fold change” value amounted to 0.557. In the case of RRIRMRPPRLPRPRPRPIIIPRP it was -0.166. The value for RRIRARPPRLPRPRPRPPKVPRP was 0.123; that for RRIRMRPPRLPRPRPRPSAPPRP was 0.51; that for RRIRDRPPRLPRPRPRPGLEPRP was 1. Consider RRIRVRPPRLPRPRPRPTTRPRP, for which the “shrunken log2 fold change” value is 0.293. In the case of RRIRQRPPRLPRPRPRPLNAPRP, the “shrunken log2 fold change” value was found to be 0.0127.

On to RRIRLRPPRLPRPRPRPCDAPRP, for which the “shrunken log2 fold change” value is -0.105.

As to RRIRERPPRLPRPRPRPRGAPRP, the “shrunken log2 fold change” value stood at 0.59.

With RRIRTRPPRLPRPRPRPCRKPRP, the “shrunken log2 fold change” value was -0.0644. The value for RRIRSRPPRLPRPRPRPTVWPRP was 0.185; that for RRIRQRPPRLPRPRPRPVWQPRP was 0.232; that for RRIRFRPPRLPRPRPRPMYFPRP was -0.331. As to RRIRSRPPRLPRPRPRPGLDPRP, the “shrunken log2 fold change” value is 0.127. On to RRIRWRPPRLPRPRPRPQRRPRP, for which the “shrunken log2 fold change” value was found to be 0.358. On to RRIRIRPPRLPRPRPRPGDAPRP, for which the “shrunken log2 fold change” value stood at 0.0793. In the case of RRIRNRPPRLPRPRPRPLGRPRP it was 0.244; in that of RRIRLRPPRLPRPRPRPQCSPRP, -0.127; in that of RRIRSRPPRLPRPRPRPEEVPRP, 0.0829. For the sequence RRIRMRPPRLPRPRPRPWFYPRP, the “shrunken log2 fold change” value was -0.418. The value for RRIRFRPPRLPRPRPRPWTCPRP was -0.126.

In the case of RRIRARPPRLPRPRPRPMMLPRP, the “shrunken log2 fold change” value was -0.00455. Regarding RRIRARPPRLPRPRPRPWNNPRP, the “shrunken log2 fold change” value was -1.02. The value for RRIRPRPPRLPRPRPRPSGDPRP was 0.14; that for RRIRMRPPRLPRPRPRPQWQPRP was 0.825.

On to RRIRTRPPRLPRPRPRPHDHPRP, for which the “shrunken log2 fold change” value is -0.257.

On to RRIRKRPPRLPRPRPRPKGHPRP, for which the “shrunken log2 fold change” value turned out to be 0.123. In the case of RRIRCRPPRLPRPRPRPGMGPRP it was 0.223; in that of RRIRMRPPRLPRPRPRPQFQPRP, -0.165. In the case of RRIRERPPRLPRPRPRPHDQPRP, the “shrunken log2 fold change” value amounted to 0.0804. In the case of RRIRKRPPRLPRPRPRPSYYPRP it was -0.983; in that of RRIRTRPPRLPRPRPRPMLSPRP, -0.41; in that of RRIRVRPPRLPRPRPRPKSDPRP, -0.142. In the case of RRIRRRPPRLPRPRPRPTPDPRP it was 0.72.

Regarding RRIRMRPPRLPRPRPRPYQEPRP, the “shrunken log2 fold change” value is -0.0194. As to RRIRVRPPRLPRPRPRPHFSPRP, the “shrunken log2 fold change” value is -0.0373.

As to RRIRKRPPRLPRPRPRPWLHPRP, the “shrunken log2 fold change” value was found to be 0.24. In the case of RRIRFRPPRLPRPRPRPYHKPRP, the “shrunken log2 fold change” value was -0.6. In the case of RRIRYRPPRLPRPRPRPINQPRP it was -0.113; in that of RRIRSRPPRLPRPRPRPETEPRP, 0.997. In the case of RRIRDRPPRLPRPRPRPVLKPRP it was 0.0359; in that of RRIRGRPPRLPRPRPRPVNNPRP, -0.0355.

Consider RRIRPRPPRLPRPRPRPNTCPRP, for which the “shrunken log2 fold change” value is -0.00653. In the case of RRIRRRPPRLPRPRPRPGLYPRP, the “shrunken log2 fold change” value is 0.305.

With RRIRARPPRLPRPRPRPTKPPRP, the “shrunken log2 fold change” value came out at 0.24. RRIRARPPRLPRPRPRPIQPPRP: the “shrunken log2 fold change” value is -0.0587.

RRIRWRPPRLPRPRPRPRTPPRP: the “shrunken log2 fold change” value worked out at 0.559. Turning to RRIRERPPRLPRPRPRPFQPPRP, the “shrunken log2 fold change” value is -0.311. Regarding RRIRWRPPRLPRPRPRPRFGPRP, the “shrunken log2 fold change” value worked out at 0.395. RRIRIRPPRLPRPRPRPLFDPRP: the “shrunken log2 fold change” value is -0.803.

Take RRIRARPPRLPRPRPRPCCEPRP: the “shrunken log2 fold change” value was determined as 0.512.

For RRIRFRPPRLPRPRPRPHFYPRP, the “shrunken log2 fold change” value is -0.38. For RRIRVRPPRLPRPRPRPTEQPRP, the “shrunken log2 fold change” value was found to be 0.0304. As for RRIRARPPRLPRPRPRPFVYPRP, the “shrunken log2 fold change” value is -0.116.

For the sequence RRIRIRPPRLPRPRPRPFYNPRP, the “shrunken log2 fold change” value is -0.756. RRIRYRPPRLPRPRPRPHRDPRP: the “shrunken log2 fold change” value is -0.288. Turning to RRIRNRPPRLPRPRPRPQAIPRP, the “shrunken log2 fold change” value was 0.00297.

As to RRIRIRPPRLPRPRPRPVMCPRP, the “shrunken log2 fold change” value stood at 0.062. For the sequence RRIRDRPPRLPRPRPRPTVVPRP, the “shrunken log2 fold change” value is 0.149. In the case of RRIRGRPPRLPRPRPRPPNFPRP it was 0.0696. In the case of RRIRTRPPRLPRPRPRPVFYPRP, the “shrunken log2 fold change” value was -0.25.

As for RRIRNRPPRLPRPRPRPPDEPRP, the “shrunken log2 fold change” value is 1.28.

Take RRIRSRPPRLPRPRPRPAGKPRP: the “shrunken log2 fold change” value is -0.284. For RRIRRRPPRLPRPRPRPLEVPRP, the “shrunken log2 fold change” value came to 0.197. In the case of RRIRLRPPRLPRPRPRPDMHPRP it was 3.46; in that of RRIRCRPPRLPRPRPRPYKSPRP, -1.19. With RRIRKRPPRLPRPRPRPFNFPRP, the “shrunken log2 fold change” value was -0.296. Consider RRIRRRPPRLPRPRPRPPEQPRP, for which the “shrunken log2 fold change” value was 0.033. For the sequence RRIRRRPPRLPRPRPRPTYAPRP, the “shrunken log2 fold change” value amounted to 0.218. In the case of RRIRHRPPRLPRPRPRPPDRPRP it was 0.385; in that of RRIRPRPPRLPRPRPRPNKMPRP, -0.17; in that of RRIRGRPPRLPRPRPRPRSWPRP, 1.19.

With RRIRSRPPRLPRPRPRPIGHPRP, the “shrunken log2 fold change” value was -0.171.

Regarding RRIRNRPPRLPRPRPRPAYHPRP, the “shrunken log2 fold change” value was -0.385. In the case of RRIRCRPPRLPRPRPRPVPNPRP, the “shrunken log2 fold change” value was -0.26. On to RRIRPRPPRLPRPRPRPDFAPRP, for which the “shrunken log2 fold change” value was determined as 0.0996. RRIRQRPPRLPRPRPRPHHYPRP: the “shrunken log2 fold change” value was -0.617. On to RRIRCRPPRLPRPRPRPFVHPRP, for which the “shrunken log2 fold change” value is -0.891. In the case of RRIRMRPPRLPRPRPRPQVWPRP it was 0.399; in that of RRIRNRPPRLPRPRPRPPDKPRP, 0.182. For the sequence RRIRGRPPRLPRPRPRPKWGPRP, the “shrunken log2 fold change” value worked out at 0.215. In the case of RRIRDRPPRLPRPRPRPHNLPRP it was 0.156. RRIRGRPPRLPRPRPRPNMRPRP: the “shrunken log2 fold change” value turned out to be 1.08. In the case of RRIRGRPPRLPRPRPRPNTMPRP it was 0.0452; in that of RRIRERPPRLPRPRPRPTDAPRP, 0.0786. As for RRIRLRPPRLPRPRPRPGHYPRP, the “shrunken log2 fold change” value was -0.0695. As to RRIRRRPPRLPRPRPRPEIPPRP, the “shrunken log2 fold change” value was determined as 0.163. With RRIRLRPPRLPRPRPRPPVEPRP, the “shrunken log2 fold change” value came to 0.638. In the case of RRIRTRPPRLPRPRPRPFNNPRP it was -0.318.

In the case of RRIRARPPRLPRPRPRPQHIPRP, the “shrunken log2 fold change” value is -0.0675. The value for RRIRSRPPRLPRPRPRPCMKPRP was -1.6; that for RRIRFRPPRLPRPRPRPWCEPRP was -0.429. As for RRIRCRPPRLPRPRPRPNYCPRP, the “shrunken log2 fold change” value is -0.3. The value for RRIRIRPPRLPRPRPRPGIYPRP was -0.585. Consider RRIRKRPPRLPRPRPRPVNCPRP, for which the “shrunken log2 fold change” value was -0.112. Turning to RRIRNRPPRLPRPRPRPMVKPRP, the “shrunken log2 fold change” value was -0.00408.
